Results reported in patent publication US20260184748A1, “COMPOSITIONS COMPRISING OCTADECANEUROPEPTIDES (ODN) AND SYNTHETIC DERIVATIVES THEREOF AND METHODS OF USE FOR MODULATION OF FOOD INTAKE, OBESITY, BODY WEIGHT, NAUSEA, AND EMESIS” (The Trustees of the University of Pennsylvania, priority 2022, published 2026).
Blank lines part the entries; values can stand above or below the compound they belong to. Where no end group is shown, it is not given here.

Legend:
Assay in all cases: Arrestin agonist mode
Format in all cases: cell-based
[1] = molecular target: EBI2 (Homo sapiens, UniProt P32249)
EBI2, sequence (P32249 whole entry): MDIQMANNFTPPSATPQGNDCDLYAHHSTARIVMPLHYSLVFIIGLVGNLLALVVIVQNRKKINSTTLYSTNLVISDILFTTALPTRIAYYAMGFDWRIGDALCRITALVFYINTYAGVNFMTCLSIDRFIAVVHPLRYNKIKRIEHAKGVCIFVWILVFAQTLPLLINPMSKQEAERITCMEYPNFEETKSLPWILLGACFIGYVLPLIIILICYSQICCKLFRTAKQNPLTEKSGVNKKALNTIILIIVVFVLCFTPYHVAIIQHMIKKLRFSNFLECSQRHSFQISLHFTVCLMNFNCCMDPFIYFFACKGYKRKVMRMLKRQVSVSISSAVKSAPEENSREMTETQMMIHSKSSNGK

[2] = molecular target: FFAR1 (Homo sapiens, UniProt O14842); conditions: read-out: RC50 (the source's name)
FFAR1, sequence (O14842 whole entry): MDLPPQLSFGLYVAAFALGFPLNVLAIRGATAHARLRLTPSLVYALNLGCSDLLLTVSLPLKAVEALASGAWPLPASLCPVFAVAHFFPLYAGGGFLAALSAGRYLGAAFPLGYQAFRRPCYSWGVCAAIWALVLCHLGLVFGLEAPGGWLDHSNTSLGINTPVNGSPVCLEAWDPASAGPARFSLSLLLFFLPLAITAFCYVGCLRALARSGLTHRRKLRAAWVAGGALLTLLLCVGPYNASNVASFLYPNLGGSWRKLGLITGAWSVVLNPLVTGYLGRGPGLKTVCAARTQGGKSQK

[3] = molecular target: CRTH2 (Homo sapiens, UniProt Q9Y5Y4); conditions: read-out: RC50 (the source's name)
CRTH2, sequence (Q9Y5Y4 whole entry): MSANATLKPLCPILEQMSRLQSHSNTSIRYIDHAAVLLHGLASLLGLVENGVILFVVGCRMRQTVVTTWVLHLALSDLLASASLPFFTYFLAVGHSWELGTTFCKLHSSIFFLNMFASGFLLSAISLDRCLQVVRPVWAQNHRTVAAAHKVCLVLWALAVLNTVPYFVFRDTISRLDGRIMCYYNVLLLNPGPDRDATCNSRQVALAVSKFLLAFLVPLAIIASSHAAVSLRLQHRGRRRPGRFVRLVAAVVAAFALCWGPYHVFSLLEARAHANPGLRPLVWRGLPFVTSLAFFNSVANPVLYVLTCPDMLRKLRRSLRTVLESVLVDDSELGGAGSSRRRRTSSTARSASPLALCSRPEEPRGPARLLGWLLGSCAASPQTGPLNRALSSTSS

[4] = molecular target: EDG6 (Homo sapiens, UniProt O95977); conditions: read-out: RC50 (the source's name)
EDG6, sequence (O95977 whole entry): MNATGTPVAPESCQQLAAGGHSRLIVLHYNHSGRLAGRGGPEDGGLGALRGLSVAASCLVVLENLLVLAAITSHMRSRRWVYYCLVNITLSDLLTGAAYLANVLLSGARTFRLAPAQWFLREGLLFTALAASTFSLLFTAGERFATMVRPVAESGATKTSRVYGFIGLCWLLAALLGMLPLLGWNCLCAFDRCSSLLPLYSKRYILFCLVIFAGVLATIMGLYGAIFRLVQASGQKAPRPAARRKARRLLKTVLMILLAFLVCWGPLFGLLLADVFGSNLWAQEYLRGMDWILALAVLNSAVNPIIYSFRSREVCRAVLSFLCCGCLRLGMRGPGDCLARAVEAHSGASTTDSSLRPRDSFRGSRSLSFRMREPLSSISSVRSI

[5] = molecular target: EDG1 (Homo sapiens, UniProt P21453); conditions: read-out: RC50 (the source's name)
EDG1, sequence (P21453 whole entry): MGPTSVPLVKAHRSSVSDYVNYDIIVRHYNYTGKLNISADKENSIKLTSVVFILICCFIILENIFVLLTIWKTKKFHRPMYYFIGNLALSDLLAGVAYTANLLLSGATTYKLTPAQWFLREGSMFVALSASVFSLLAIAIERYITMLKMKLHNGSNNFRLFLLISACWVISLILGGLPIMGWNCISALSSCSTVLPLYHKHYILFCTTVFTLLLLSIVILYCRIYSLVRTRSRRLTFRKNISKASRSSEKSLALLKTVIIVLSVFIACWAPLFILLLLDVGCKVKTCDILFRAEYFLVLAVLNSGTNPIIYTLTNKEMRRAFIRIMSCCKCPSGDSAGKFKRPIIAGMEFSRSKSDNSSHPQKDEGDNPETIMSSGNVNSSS

[6] = molecular target: EDG3 (Homo sapiens, UniProt Q99500); conditions: read-out: RC50 (the source's name)
EDG3, sequence (Q99500 whole entry): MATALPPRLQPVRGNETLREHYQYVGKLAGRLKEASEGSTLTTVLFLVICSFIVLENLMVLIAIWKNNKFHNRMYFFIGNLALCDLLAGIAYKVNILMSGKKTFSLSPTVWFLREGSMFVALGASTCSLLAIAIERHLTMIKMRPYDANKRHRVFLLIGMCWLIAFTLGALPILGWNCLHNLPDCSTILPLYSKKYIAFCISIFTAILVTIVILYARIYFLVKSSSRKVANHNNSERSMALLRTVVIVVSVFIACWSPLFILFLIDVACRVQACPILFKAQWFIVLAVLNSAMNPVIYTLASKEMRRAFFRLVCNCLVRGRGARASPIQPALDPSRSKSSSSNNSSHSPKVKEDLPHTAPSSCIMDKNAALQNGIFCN

[7] = molecular target: CCR5 (Homo sapiens, UniProt P51681); conditions: read-out: RC50 (the source's name)
CCR5, sequence (P51681 whole entry): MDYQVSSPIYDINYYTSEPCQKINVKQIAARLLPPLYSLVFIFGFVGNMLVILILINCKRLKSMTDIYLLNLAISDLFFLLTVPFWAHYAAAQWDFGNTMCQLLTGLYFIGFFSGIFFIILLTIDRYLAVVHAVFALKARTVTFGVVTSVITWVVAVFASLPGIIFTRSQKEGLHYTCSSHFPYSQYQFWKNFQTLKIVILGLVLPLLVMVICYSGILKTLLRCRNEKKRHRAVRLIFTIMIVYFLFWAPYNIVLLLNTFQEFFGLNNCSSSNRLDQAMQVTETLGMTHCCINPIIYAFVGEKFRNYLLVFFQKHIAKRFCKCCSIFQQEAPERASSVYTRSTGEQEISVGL

[8] = molecular target: T1, CCR1 (Homo sapiens, UniProt P32246); conditions: read-out: RC50 (the source's name)
T1 sequence (P32246 1-355): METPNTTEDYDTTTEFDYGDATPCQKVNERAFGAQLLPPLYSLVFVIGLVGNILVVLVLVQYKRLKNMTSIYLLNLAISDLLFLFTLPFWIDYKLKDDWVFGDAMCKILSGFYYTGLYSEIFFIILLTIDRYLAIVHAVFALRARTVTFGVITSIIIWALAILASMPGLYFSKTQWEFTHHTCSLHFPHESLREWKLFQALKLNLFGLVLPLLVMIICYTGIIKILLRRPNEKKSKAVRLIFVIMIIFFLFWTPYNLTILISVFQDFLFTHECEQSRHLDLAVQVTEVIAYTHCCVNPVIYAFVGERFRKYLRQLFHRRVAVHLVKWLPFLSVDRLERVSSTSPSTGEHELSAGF

[9] = molecular target: T2, CCR3 (Homo sapiens, UniProt P51677); conditions: read-out: RC50 (the source's name)
T2 sequence (P51677 1-355): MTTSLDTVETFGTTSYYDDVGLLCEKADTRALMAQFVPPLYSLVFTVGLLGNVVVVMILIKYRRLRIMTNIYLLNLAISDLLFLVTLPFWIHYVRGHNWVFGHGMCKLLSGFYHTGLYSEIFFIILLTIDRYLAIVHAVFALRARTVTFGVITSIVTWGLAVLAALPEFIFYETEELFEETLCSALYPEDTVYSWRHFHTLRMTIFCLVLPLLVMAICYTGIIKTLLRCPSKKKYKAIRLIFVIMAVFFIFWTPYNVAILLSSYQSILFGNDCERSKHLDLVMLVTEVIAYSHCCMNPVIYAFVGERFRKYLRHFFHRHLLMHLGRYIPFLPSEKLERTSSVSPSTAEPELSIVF

[10] = molecular target: T3, CCR7 (Homo sapiens, UniProt P32248); conditions: read-out: RC50 (the source's name)
T3 sequence (P32248 25-378): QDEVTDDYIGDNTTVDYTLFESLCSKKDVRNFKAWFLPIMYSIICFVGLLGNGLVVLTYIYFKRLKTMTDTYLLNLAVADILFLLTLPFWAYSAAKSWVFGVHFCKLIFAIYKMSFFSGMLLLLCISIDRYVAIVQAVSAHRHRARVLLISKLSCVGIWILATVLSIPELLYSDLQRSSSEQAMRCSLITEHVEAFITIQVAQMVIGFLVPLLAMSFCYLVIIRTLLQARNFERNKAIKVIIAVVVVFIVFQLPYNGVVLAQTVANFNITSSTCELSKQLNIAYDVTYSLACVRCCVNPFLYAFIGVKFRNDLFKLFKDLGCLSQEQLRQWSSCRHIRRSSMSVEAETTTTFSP

[11] = molecular target: T4, CCR6 (Homo sapiens, UniProt P51684); conditions: read-out: RC50 (the source's name)
T4 sequence (P51684 1-374): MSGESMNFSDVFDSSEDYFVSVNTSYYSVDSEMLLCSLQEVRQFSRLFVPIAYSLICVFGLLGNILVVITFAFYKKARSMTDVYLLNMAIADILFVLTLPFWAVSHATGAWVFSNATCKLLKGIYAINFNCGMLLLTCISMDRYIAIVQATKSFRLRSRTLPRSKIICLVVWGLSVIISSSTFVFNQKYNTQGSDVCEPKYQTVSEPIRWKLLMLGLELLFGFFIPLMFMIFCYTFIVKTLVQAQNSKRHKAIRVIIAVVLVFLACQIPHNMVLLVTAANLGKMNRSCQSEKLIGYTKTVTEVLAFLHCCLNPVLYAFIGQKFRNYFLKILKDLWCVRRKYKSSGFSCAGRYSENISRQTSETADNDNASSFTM

[12] = molecular target: T5, CXCR1 (Homo sapiens, UniProt P25024); conditions: read-out: RC50 (the source's name)
T5 sequence (P25024 1-350): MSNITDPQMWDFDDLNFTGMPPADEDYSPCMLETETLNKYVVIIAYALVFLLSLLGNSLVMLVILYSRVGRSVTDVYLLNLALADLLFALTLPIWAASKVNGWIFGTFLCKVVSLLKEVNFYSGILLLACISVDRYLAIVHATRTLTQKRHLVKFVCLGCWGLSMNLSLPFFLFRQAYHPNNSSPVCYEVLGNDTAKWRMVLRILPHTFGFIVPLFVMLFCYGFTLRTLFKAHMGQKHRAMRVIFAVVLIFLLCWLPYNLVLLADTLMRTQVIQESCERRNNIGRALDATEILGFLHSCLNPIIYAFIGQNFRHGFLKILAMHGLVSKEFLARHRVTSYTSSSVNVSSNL

[13] = molecular target: T6, CXCR2 (Homo sapiens, UniProt P25025); conditions: read-out: RC50 (the source's name)
T6 sequence (P25025 1-360): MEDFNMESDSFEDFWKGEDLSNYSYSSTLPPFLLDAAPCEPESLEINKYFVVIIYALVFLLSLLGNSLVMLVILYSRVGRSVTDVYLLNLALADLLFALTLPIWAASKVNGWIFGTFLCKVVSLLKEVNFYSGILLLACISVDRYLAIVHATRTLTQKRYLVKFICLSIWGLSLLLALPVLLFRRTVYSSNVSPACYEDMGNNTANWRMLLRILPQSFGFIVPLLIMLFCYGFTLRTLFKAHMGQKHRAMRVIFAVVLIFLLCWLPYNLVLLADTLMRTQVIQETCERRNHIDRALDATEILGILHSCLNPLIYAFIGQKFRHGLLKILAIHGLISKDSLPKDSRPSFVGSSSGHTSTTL

[14] = molecular target: T7, CXCR3 (Homo sapiens, UniProt P49682); conditions: read-out: RC50 (the source's name)
T7 sequence (P49682 1-368): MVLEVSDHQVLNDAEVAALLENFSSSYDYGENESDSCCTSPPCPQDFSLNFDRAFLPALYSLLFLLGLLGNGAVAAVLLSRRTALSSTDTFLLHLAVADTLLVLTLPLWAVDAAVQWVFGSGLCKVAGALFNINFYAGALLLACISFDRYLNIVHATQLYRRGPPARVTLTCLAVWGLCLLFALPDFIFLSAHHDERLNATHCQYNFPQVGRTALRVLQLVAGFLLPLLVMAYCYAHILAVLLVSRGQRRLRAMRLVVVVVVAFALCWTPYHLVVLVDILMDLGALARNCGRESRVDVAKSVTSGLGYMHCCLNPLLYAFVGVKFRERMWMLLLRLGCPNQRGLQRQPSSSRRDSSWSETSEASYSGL

[15] = molecular target: T8, CXCR5 (Homo sapiens, UniProt P32302); conditions: read-out: RC50 (the source's name)
T8 sequence (P32302 1-372): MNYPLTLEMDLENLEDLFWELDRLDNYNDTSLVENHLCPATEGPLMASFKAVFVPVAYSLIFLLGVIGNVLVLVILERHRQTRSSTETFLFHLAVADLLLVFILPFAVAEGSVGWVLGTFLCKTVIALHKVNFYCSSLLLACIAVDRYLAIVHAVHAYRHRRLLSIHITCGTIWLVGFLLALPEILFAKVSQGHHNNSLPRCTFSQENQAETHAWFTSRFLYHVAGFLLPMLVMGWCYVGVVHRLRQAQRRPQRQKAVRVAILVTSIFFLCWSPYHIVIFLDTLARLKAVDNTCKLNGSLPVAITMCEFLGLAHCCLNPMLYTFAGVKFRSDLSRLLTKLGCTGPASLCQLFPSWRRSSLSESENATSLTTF

[16] = molecular target: T9, GPR1 (Homo sapiens, UniProt P46091); conditions: read-out: RC50 (the source's name)
T9 sequence (P46091 1-355): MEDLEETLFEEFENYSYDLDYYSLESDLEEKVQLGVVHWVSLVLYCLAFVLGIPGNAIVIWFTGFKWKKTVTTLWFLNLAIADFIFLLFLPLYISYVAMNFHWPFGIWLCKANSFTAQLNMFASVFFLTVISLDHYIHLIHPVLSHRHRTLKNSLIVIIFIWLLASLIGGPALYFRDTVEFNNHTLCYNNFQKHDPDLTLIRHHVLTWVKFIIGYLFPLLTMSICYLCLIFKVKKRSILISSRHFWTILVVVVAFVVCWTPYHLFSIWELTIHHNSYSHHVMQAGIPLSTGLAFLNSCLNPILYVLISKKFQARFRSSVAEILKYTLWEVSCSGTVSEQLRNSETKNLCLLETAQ

[17] = molecular target: T10, CX3CR1 (Homo sapiens, UniProt P49238); conditions: read-out: RC50 (the source's name)
T10 sequence (P49238 1-355): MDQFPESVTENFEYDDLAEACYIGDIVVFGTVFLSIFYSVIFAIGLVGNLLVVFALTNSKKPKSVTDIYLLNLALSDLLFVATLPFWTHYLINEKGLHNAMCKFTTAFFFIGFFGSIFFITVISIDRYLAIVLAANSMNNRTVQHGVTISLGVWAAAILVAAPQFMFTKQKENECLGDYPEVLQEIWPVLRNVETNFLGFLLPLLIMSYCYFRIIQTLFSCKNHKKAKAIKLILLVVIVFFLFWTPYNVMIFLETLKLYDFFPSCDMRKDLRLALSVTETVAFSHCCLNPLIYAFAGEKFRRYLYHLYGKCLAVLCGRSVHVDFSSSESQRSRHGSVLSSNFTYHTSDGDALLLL

[18] = molecular target: GPR103 (Homo sapiens, UniProt Q96P65); conditions: read-out: RC50 (the source's name)
GPR103, sequence (Q96P65 whole entry): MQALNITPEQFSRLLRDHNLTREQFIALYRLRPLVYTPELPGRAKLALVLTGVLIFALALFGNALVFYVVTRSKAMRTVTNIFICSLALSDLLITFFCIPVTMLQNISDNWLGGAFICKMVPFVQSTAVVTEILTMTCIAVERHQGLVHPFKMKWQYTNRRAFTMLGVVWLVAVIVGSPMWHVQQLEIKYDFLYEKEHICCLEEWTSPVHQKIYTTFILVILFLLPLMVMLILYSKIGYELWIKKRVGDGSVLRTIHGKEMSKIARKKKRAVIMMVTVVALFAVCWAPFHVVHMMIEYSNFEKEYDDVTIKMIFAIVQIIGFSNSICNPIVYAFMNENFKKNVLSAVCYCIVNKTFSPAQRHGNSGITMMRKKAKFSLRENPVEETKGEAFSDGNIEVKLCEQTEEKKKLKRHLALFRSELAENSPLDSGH

Compound: C[C@H](CCCC(C)(C)O)[C@H]1CC[C@H]2[C@@H]3[C@H](O)C=C4C[C@@H](O)CC[C@]4(C)[C@H]3CC[C@]12C [7a,25-Dihydroxycholesterol]
EC50 [1]: 3.63 nM

Compound: CCCCCCCCCCCCC/C=C/[C@@H](O)[C@@H](N)COP(=O)(O)O [S-1-P]
EC50 [4]: 30.5 nM
EC50 [5]: 19 nM
EC50 [6]: 10.6 nM

Compound: CCL3: control agonist
EC50 [7]: 7.55 nM
EC50 [8]: 1.04 nM

Compound: CCL13: control agonist
EC50 [9]: 40.6 nM

Compound: CCL19: control agonist
EC50 [10]: 5.65 nM

Compound: CCL20: control agonist
EC50 [11]: 2.95 nM

Compound: CXCL8: control agonist
EC50 [12]: 2.8 nM
EC50 [13]: 0.304 nM

Compound: CXCL11: control agonist
EC50 [14]: 12 nM

Compound: CXCL13: control agonist
EC50 [15]: 21 nM

Compound: Chemerin: control agonist
EC50 [16]: 2.26 nM

Compound: Fractalkine: control agonist
EC50 [17]: 0.444 nM

The remaining lines, values ahead:

EC50 [2]: 959 nM
Compound: O=C(O)CCc1ccc(NCc2cccc(Oc3ccccc3)c2)cc1 [GW9508]

EC50 [3]: 3.34 nM
Compound: CCCCC[C@H](O)/C=C/[C@H]1C(=O)C[C@H](O)[C@@H]1C/C=C\CCCC(=O)O [PGD2]

EC50 [18]: 10 nM
Compound: TSGPLGNLAEELNGYSRKKGGFSFRF-NH2 (C-terminus assumed) [QRFP-26]
